{"source": "patent US20160333422A1", "about": "(UNITED STATES OF AMERICA AS REPRESENTED BY THE SECRETARY …, published 2016)", "key": {"[1]": {"biological_target": "T1, NY-BR-1 expressed from a transfected vector/plasmid in target cells (Homo sapiens (Human), UniProt Q9BXX3 1-1397)", "T1 sequence": "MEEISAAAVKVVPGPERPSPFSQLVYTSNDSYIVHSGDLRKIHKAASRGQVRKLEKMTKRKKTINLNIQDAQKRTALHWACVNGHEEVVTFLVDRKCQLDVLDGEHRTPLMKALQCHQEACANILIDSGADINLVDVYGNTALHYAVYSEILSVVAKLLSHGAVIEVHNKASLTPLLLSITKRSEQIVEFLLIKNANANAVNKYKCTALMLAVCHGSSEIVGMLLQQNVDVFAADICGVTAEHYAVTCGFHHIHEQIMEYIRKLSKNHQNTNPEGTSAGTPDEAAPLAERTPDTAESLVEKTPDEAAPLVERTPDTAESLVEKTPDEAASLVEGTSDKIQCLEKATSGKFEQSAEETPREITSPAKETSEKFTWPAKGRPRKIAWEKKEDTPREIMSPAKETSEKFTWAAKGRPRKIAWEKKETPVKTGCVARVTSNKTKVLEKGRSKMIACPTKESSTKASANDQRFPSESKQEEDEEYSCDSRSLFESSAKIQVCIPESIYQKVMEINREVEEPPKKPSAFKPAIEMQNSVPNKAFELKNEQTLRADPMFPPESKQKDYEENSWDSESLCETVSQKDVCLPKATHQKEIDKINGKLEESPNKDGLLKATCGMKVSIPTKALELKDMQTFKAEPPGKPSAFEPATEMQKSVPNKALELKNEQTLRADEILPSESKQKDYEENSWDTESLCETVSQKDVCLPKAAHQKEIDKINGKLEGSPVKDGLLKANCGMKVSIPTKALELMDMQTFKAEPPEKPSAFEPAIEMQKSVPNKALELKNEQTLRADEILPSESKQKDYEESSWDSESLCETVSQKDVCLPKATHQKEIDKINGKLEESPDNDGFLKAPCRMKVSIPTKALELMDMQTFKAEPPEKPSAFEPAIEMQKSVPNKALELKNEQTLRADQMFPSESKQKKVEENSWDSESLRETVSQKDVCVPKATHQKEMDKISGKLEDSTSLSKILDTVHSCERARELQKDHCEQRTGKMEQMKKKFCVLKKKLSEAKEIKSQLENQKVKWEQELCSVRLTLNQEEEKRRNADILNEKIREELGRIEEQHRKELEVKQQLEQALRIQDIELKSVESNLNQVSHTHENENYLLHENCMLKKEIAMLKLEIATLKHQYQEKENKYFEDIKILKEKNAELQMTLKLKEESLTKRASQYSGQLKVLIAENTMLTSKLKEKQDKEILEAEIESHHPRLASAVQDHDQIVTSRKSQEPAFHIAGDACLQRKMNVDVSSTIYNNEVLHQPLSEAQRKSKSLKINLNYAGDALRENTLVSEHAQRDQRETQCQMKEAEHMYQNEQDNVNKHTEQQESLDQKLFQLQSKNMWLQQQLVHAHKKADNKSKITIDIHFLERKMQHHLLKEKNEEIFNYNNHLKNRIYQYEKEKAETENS", "experiment": "cell-based or functional assay"}, "[2]": {"biological_target": "NYBR1.1, an isoform of NYBR1, expressed from a plasmid in Cos7 cells, Q9BXX2", "sequence (Q9BXX2 whole entry, canonical isoform)": "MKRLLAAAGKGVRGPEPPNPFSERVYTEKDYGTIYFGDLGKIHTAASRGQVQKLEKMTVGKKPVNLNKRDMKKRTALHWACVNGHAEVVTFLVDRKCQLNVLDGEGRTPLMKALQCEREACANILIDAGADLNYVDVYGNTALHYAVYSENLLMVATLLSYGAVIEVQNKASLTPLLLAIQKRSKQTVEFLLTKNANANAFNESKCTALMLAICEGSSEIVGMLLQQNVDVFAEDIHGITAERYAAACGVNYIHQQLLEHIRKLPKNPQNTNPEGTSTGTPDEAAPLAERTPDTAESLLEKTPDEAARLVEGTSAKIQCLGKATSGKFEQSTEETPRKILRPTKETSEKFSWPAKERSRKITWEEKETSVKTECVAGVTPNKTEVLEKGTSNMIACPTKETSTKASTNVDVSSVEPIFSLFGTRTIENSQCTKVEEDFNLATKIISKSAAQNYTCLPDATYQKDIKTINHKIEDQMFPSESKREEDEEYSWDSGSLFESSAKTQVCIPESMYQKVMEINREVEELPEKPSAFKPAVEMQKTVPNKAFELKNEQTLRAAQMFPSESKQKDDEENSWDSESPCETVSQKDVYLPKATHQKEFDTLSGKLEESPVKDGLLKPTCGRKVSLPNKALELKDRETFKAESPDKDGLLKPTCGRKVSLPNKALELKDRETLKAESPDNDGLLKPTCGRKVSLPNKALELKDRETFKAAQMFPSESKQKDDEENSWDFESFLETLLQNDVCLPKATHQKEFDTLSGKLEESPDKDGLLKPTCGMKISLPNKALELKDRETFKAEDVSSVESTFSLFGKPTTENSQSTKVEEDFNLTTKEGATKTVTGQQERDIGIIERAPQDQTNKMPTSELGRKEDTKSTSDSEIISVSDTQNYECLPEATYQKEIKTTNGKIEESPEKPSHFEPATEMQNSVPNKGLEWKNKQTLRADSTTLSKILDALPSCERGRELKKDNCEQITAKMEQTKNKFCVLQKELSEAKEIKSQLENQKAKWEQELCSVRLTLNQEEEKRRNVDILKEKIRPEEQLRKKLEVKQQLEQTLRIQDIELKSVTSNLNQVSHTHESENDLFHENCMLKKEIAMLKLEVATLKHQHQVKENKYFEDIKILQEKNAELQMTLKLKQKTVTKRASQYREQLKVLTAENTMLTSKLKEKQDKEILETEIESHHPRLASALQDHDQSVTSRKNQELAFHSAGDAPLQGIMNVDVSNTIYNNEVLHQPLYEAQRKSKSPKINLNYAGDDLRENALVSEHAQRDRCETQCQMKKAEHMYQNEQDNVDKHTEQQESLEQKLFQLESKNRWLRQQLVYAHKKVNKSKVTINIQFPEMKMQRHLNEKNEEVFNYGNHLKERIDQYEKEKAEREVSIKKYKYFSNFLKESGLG", "experiment": "cell-based or functional assay"}}, "data": [{"binder": "fourth generation anti-NY-BR-1 CAR (NYBR1 ScFv BBZ) (other) VQLQESGPDLVKPSQSLSLTCTVTGYSITSGYSWHWIRQFPGNKLEWMGYIHYSGDTDYNPSLKSRFSITRDTSKNQFFLQLNSVTTEDTATYYCATPGGFVYWGQGTLVTVSAGGGGSGGGGSGGGGSDVVMTQTPLTLSVTIGQPASISCKSSQSLLDSDGKTYLHWLLQRPGQSPKRLIFLVSKLDSGVPDRFTGSGSGTDFTLKISRVEAEDLGVYYCWQGTHFPQTFGGGTKLEIKAAAFVPVFLPAKPTTTPAPRPPTPAPTIASQPLSLRPEACRPAAGGAVHTRGLDFACDIYIWAPLAGTCGVLLLSLVITLYCNHRNRFSVVKRGRKKLLYIFKQPFMRPVQTTQEEDGCSCRFPEEEEGGCELRVKFSRSADAPAYQQGQNQLYNELNLGRREEYDVLDKRRGRDPEMGGKPRRKNPQEGLYNELQKDKMAEAYSEIGMKGERRRGKGHDGLYQGLSTATKDTYDALHMQALPPR", "values": [{"measurement": "IFN-γ secretion (pg/ml) upon co-culture with Cos7 cell line transfected with plasmid NYBR1; Patient 5", "setting": "[1]", "value": 1620, "unit": "pg/mL"}, {"measurement": "IFN-γ secretion (pg/ml) upon co-culture with Cos7 cell line transfected with plasmid NYBR1; Patient 6", "setting": "[1]", "value": 929, "unit": "pg/mL"}, {"measurement": "IFN-γ secretion (pg/ml) upon co-culture with Cos7 cell line transfected with plasmid NYBR1; Patient 7", "setting": "[1]", "value": 3290, "unit": "pg/mL"}, {"measurement": "IFN-γ secretion (pg/ml) upon co-culture with Cos7 cell line transfected with plasmid NYBR 1.1; Patient 5", "setting": "[2]", "value": 527, "unit": "pg/mL"}, {"measurement": "IFN-γ secretion (pg/ml) upon co-culture with Cos7 cell line transfected with plasmid NYBR 1.1; Patient 6", "setting": "[2]", "value": 411, "unit": "pg/mL"}, {"measurement": "IFN-γ secretion (pg/ml) upon co-culture with Cos7 cell line transfected with plasmid NYBR 1.1; Patient 7", "setting": "[2]", "value": 1260, "unit": "pg/mL"}]}, {"binder": "second generation anti-NY-BR-1 CAR (NYBR1-28Z) (other) VQLQESGPDLVKPSQSLSLTCTVTGYSITSGYSWHWIRQFPGNKLEWMGYIHYSGDTDYNPSLKSRFSITRDTSKNQFFLQLNSVTTEDTATYYCATPGGFVYWGQGTLVTVSAGGGGSGGGGSGGGGSDVVMTQTPLTLSVTIGQPASISCKSSQSLLDSDGKTYLHWLLQRPGQSPKRLIFLVSKLDSGVPDRFTGSGSGTDFTLKISRVEAEDLGVYYCWQGTHFPQTFGGGTKLEIKAAAIEVMYPPPYLDNEKSNGTIIHVKGKHLCPSPLFPGPSKPFWVLVVVGGVLACYSLLVTVAFIIFWVRSKRSRLLHSDYMNMTPRRPGPTRKHYQPYAPPRDFAAYRSRVKFSRSADAPAYQQGQNQLYNELNLGRREEYDVLDKRRGRDPEMGGKPRRKNPQEGLYNELQKDKMAEAYSEIGMKGERRRGKGHDGLYQGLSTATKDTYDALHMQALPPR", "values": [{"measurement": "IFN-γ secretion (pg/ml) upon co-culture with Cos7 cell line transfected with plasmid NYBR1; Patient 5", "setting": "[1]", "value": 1110, "unit": "pg/mL"}, {"measurement": "IFN-γ secretion (pg/ml) upon co-culture with Cos7 cell line transfected with plasmid NYBR1; Patient 6", "setting": "[1]", "value": 555, "unit": "pg/mL"}, {"measurement": "IFN-γ secretion (pg/ml) upon co-culture with Cos7 cell line transfected with plasmid NYBR1; Patient 7", "setting": "[1]", "value": 3590, "unit": "pg/mL"}, {"measurement": "IFN-γ secretion (pg/ml) upon co-culture with Cos7 cell line transfected with plasmid NYBR 1.1; Patient 5", "setting": "[2]", "value": 153, "unit": "pg/mL"}, {"measurement": "IFN-γ secretion (pg/ml) upon co-culture with Cos7 cell line transfected with plasmid NYBR 1.1; Patient 6", "setting": "[2]", "value": 51, "unit": "pg/mL"}, {"measurement": "IFN-γ secretion (pg/ml) upon co-culture with Cos7 cell line transfected with plasmid NYBR 1.1; Patient 7", "setting": "[2]", "value": 518, "unit": "pg/mL"}]}, {"binder": "third generation anti-NY-BR-1 CAR (NYBR1-28BBZ) (other) VQLQESGPDLVKPSQSLSLTCTVTGYSITSGYSWHWIRQFPGNKLEWMGYIHYSGDTDYNPSLKSRFSITRDTSKNQFFLQLNSVTTEDTATYYCATPGGFVYWGQGTLVTVSAGGGGSGGGGSGGGGSDVVMTQTPLTLSVTIGQPASISCKSSQSLLDSDGKTYLHWLLQRPGQSPKRLIFLVSKLDSGVPDRFTGSGSGTDFTLKISRVEAEDLGVYYCWQGTHFPQTFGGGTKLEIKAAAFVPVFLPAKPTTTPAPRPPTPAPTIASQPLSLRPEACRPAAGGAVHTRGLDFACDIYIWAPLAGTCGVLLLSLVITLYCNHRNRSKRSRLLHSDYMNMTPRRPGPTRKHYQPYAPPRDFAAYRSRFSVVKRGRKKLLYIFKQPFMRPVQTTQEEDGCSCRFPEEEEGGCELRVKFSRSADAPAYQQGQNQLYNELNLGRREEYDVLDKRRGRDPEMGGKPRRKNPQEGLYNELQKDKMAEAYSEIGMKGERRRGKGHDGLYQGLSTATKDTYDALHMQALPPR", "values": [{"measurement": "IFN-γ secretion (pg/ml) upon co-culture with Cos7 cell line transfected with plasmid NYBR1; Patient 5", "setting": "[1]", "value": 51, "unit": "pg/mL"}, {"measurement": "IFN-γ secretion (pg/ml) upon co-culture with Cos7 cell line transfected with plasmid NYBR1; Patient 6", "setting": "[1]", "value": 48, "unit": "pg/mL"}, {"measurement": "IFN-γ secretion (pg/ml) upon co-culture with Cos7 cell line transfected with plasmid NYBR1; Patient 7", "setting": "[1]", "value": 71, "unit": "pg/mL"}, {"measurement": "IFN-γ secretion (pg/ml) upon co-culture with Cos7 cell line transfected with plasmid NYBR 1.1; Patient 5", "setting": "[2]", "value": 0, "unit": "pg/mL"}, {"measurement": "IFN-γ secretion (pg/ml) upon co-culture with Cos7 cell line transfected with plasmid NYBR 1.1; Patient 6", "setting": "[2]", "value": 14, "unit": "pg/mL"}, {"measurement": "IFN-γ secretion (pg/ml) upon co-culture with Cos7 cell line transfected with plasmid NYBR 1.1; Patient 7", "setting": "[2]", "value": 26, "unit": "pg/mL"}]}]}
